Assay results as given in patent US20030144209A1 (MASSACHUSETTS GERNERAL HOSPITAL, published 2003).
Square brackets hold non-standard residues; d marks the D form. Ends that are not written are not given here. * marks the point of attachment. Propionyl = CCC(=O)*

B1: desamino-[Gly^1]hPTH(1-34)NH2 (peptide)
peptide: [Ac]VSEIQLMHNLGKHLNSMERVEWLRKKLQDVHNF-NH2
notes: Analog of human PTH(1-34) in which Ser1 is replaced by desamino glycine; also called [desaminoGly^1]; PTH(1-34); desamino-[Gly^1] peptide
B2: desamino-[Ala^1]hPTH(1-34)NH2 (peptide)
peptide: [Propionyl]VSEIQLMHNLGKHLNSMERVEWLRKKLQDVHNF-NH2
SMILES: CCC(=O)N[C@H](C(=O)N[C@@H](CO)C(=O)N[C@@H](CCC(=O)O)C(=O)N[C@H](C(=O)N[C@@H](CCC(N)=O)C(=O)N[C@@H](CC(C)C)C(=O)N[C@@H](CCSC)C(=O)N[C@@H](Cc1c[nH]cn1)C(=O)N[C@@H](CC(N)=O)C(=O)N[C@@H](CC(C)C)C(=O)NCC(=O)N[C@@H](CCCCN)C(=O)N[C@@H](Cc1c[nH]cn1)C(=O)N[C@@H](CC(C)C)C(=O)N[C@@H](CC(N)=O)C(=O)N[C@@H](CO)C(=O)N[C@@H](CCSC)C(=O)N[C@@H](CCC(=O)O)C(=O)N[C@@H](CCCNC(=N)N)C(=O)N[C@H](C(=O)N[C@@H](CCC(=O)O)C(=O)N[C@@H](Cc1c[nH]c2ccccc12)C(=O)N[C@@H](CC(C)C)C(=O)N[C@@H](CCCNC(=N)N)C(=O)N[C@@H](CCCCN)C(=O)N[C@@H](CCCCN)C(=O)N[C@@H](CC(C)C)C(=O)N[C@@H](CCC(N)=O)C(=O)N[C@@H](CC(=O)O)C(=O)N[C@H](C(=O)N[C@@H](Cc1c[nH]cn1)C(=O)N[C@@H](CC(N)=O)C(=O)N[C@@H](Cc1ccccc1)C(N)=O)C(C)C)C(C)C)[C@@H](C)CC)C(C)C
notes: Analog of human PTH(1-34) in which Ser1 is replaced by desamino alanine; also called [desamino Ala^1]PTH(1-34); desamino-[Ala^1] peptide

Assays:
human PTH-1 receptor = molecular target: T1, human PTH-1 receptor (human, UniProt Q03431 27-593); experiment: cell-based or functional assay
T1 sequence (looked up): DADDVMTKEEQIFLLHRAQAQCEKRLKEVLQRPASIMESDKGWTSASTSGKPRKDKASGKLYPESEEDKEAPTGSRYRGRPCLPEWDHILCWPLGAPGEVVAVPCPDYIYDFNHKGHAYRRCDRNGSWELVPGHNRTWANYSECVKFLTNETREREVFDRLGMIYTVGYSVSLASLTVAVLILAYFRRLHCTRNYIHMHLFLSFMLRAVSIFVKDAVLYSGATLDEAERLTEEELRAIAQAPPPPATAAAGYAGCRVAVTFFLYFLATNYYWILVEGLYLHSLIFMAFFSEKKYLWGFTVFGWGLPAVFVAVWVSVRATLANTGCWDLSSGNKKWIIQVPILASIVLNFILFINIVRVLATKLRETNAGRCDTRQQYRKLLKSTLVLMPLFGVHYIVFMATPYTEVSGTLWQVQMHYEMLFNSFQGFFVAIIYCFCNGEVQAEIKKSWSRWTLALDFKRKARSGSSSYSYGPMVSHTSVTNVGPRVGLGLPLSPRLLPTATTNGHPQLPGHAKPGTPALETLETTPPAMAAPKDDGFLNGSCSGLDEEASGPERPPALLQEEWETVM

human PTH-2 receptor [1] = molecular target: T2, human PTH-2 receptor (human, UniProt P49190 25-550); experiment: cell-based or functional assay
T2 sequence (P49190 25-550): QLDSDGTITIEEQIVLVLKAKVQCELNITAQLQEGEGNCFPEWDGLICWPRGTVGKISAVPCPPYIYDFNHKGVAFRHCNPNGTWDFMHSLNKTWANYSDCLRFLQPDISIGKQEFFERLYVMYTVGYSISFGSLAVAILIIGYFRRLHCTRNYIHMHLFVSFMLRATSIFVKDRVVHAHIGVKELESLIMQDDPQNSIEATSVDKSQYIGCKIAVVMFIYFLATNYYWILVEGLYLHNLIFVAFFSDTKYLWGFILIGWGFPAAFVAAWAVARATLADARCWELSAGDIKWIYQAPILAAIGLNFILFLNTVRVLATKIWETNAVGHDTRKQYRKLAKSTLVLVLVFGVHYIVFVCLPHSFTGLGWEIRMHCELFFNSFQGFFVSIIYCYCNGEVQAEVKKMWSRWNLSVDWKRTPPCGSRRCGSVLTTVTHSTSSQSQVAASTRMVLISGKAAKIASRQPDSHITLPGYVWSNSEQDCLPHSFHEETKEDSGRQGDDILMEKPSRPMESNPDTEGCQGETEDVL

human PTH-2 receptor [2] = molecular target: T2, human PTH-2 receptor; experiment: competitive displacement of 125I-[Nle8,21]rPTH(1-34) from HPR2-7 cells expressing the human PTH-2 receptor
Excerpt: Cell layers were washed three times before solubilization for determination of cell-associated radioactivity.

Molecule | phospholipase C (PLC) activity in HKRK-B7 cells at 1000 nM (% of the hPTH(1-34) maximum) (human PTH-1 receptor) | fold decrease in AC activity relative to the amino-bearing peptide (human PTH-1 receptor) [fold] | EC50 of AC activation, fold lower than hPTH(1-34) (human PTH-2 receptor [1]) [fold] | EC50 of adenylyl cyclase (AC) activation (human PTH-2 receptor [1]) [nM] | PLC stimulation relative to 1000 nM hPTH(1-34) (human PTH-2 receptor [1]) [% greater] | maximal AC response relative to hPTH(1-34) (human PTH-2 receptor [1]) [fold] | fold higher apparent binding affinity relative to hPTH(1-34) (human PTH-2 receptor [2]) [fold] | AC activation relative to hPTH(1-34) (human PTH-1 receptor) [fold] | AC activation relative to hPTH(1-34) (human PTH-2 receptor [1]) [fold]
[Gly^1]hPTH(1-34)NH2 (from UniProt P01270 32-65) (peptide) | 50 | – | – | – | – | – | – | – | –
B1 | – | 10 | 3 | 10 | 50 | 2 | 10 | – | –
VSEIQLMHNLGKHLNSMERVEWLRKKLQDVHNF-NH2 (peptide, UniProt P01270 33-65, looked up) [hPTH(2-34)] | – | – | – | – | – | – | – | ≤ 10 | ≤ 10
B2 | – | 10 | 3 | 10 | 50 | 2 | 10 | – | –
